Assay results as given in patent EP4786492A1.
Values belong to the binder of their own block, whether it stands above or below them.

Tests used:
[1] = biological target: human DLL3 protein expressed on CHO-K1 recombinant cells (human DLL3 extracellular segment fused to EpCAM transmembrane and intracellular regions) (human) (UniProt Q9NYJ7); assay: FACS, CHO-K1 hDLL3 cells, 0.8 nM antibody
[2] = biological target: monkey DLL3 on CHO-K1-cyno DLL3 cells (cynomolgus monkey); assay: FACS, CHO-K1-cyno DLL3 cells, 0.0064 nM antibody
Sequence of monkey DLL3 on CHO-K1-cyno DLL3 cells (cynomolgus monkey) (chain, as listed by the source limits assumed): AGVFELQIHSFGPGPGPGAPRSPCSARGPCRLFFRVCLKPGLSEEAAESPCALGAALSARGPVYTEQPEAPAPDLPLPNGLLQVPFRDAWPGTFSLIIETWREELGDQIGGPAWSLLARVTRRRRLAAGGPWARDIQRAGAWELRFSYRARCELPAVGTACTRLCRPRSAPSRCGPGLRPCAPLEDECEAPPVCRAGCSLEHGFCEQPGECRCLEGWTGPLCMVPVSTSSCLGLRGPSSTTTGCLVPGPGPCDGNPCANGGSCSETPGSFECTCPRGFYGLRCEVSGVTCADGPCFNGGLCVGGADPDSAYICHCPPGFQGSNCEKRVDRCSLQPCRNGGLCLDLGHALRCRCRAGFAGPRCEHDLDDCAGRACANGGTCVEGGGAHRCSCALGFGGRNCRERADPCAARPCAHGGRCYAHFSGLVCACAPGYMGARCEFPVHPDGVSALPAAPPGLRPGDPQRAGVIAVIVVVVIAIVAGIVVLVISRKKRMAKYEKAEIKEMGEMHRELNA

[3] = biological target: monkey DLL3 on CHO-K1-cyno DLL3 cells (cynomolgus monkey); assay: FACS, CHO-K1-cyno DLL3 cells, 0.16 nM antibody
[4] = biological target: DLL3 endogenously expressed on NCI-H82 cells (UniProt Q9NYJ7); assay: FACS on NCI-H82 cells; antibody 0.032 nM
Sequence of DLL3 endogenously expressed on NCI-H82 cells (Q9NYJ7 27-618): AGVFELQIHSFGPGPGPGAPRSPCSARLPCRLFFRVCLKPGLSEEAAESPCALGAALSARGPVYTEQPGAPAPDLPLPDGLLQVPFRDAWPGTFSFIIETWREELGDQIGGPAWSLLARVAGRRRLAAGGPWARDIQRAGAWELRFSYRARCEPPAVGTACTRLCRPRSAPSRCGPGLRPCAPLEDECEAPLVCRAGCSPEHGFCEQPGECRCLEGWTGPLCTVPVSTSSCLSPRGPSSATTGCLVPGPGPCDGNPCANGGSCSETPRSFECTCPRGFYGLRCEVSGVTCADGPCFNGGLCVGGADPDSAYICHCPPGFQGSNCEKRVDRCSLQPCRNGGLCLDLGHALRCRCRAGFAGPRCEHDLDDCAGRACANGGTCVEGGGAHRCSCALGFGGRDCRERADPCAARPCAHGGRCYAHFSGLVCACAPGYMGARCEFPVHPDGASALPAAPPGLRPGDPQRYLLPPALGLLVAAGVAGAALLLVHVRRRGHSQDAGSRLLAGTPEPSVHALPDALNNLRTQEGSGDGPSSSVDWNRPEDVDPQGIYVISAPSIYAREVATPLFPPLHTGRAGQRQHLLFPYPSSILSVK

[5] = biological target: DLL3 endogenously expressed on NCI-H82 cells (UniProt Q9NYJ7); assay: FACS on NCI-H82 cells; antibody 0.0064 nM
[6] = biological target: human DLL3 protein expressed on CHO-K1 recombinant cells (human DLL3 extracellular segment fused to EpCAM transmembrane and intracellular regions) (human) (UniProt Q9NYJ7); assay: FACS, CHO-K1 hDLL3 cells, 4 nM antibody
[7] = biological target: DLL3 endogenously expressed on NCI-H82 cells (UniProt Q9NYJ7); assay: FACS on NCI-H82 cells; antibody 0.8 nM
[8] = biological target: mouse DLL3 on CHO-K1-mDLL3 cells (mouse) (UniProt O88516); assay: FACS, CHO-K1-mDLL3 cells, 100 nM antibody
Sequence of mouse DLL3 on CHO-K1-mDLL3 cells (mouse) (O88516 other isoform, or with tags, fused parts or gaps limits assumed): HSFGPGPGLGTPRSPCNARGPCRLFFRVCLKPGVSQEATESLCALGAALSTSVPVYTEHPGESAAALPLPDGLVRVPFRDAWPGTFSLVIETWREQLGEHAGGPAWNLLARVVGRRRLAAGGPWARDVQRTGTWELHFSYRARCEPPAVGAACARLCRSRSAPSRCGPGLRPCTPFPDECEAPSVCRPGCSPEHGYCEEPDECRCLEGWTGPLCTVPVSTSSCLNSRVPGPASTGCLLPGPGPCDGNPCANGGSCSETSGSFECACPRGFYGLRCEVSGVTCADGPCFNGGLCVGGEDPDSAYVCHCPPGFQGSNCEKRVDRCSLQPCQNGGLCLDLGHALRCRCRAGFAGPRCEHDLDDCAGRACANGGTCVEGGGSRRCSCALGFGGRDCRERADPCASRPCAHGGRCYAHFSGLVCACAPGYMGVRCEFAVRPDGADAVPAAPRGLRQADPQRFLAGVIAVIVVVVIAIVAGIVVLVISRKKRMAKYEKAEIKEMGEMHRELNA

[9] = biological target: mouse DLL3 on CHO-K1-mDLL3 cells (mouse) (UniProt O88516); assay: FACS, CHO-K1-mDLL3 cells, 0.032 nM antibody
[10] = biological target: monkey DLL3 on CHO-K1-cyno DLL3 cells (cynomolgus monkey); assay: FACS, CHO-K1-cyno DLL3 cells, 20 nM antibody
[11] = biological target: human DLL1 protein (Acro, Cat. No. DL1-H52H8) (human) (UniProt O00548); assay: ELISA, coated hDLL1; maximum over 0.1, 1, 10, 100 nM antibody
Sequence of human DLL1 protein (Acro, Cat. No. DL1-H52H8) (human) (O00548 18-540 limits assumed): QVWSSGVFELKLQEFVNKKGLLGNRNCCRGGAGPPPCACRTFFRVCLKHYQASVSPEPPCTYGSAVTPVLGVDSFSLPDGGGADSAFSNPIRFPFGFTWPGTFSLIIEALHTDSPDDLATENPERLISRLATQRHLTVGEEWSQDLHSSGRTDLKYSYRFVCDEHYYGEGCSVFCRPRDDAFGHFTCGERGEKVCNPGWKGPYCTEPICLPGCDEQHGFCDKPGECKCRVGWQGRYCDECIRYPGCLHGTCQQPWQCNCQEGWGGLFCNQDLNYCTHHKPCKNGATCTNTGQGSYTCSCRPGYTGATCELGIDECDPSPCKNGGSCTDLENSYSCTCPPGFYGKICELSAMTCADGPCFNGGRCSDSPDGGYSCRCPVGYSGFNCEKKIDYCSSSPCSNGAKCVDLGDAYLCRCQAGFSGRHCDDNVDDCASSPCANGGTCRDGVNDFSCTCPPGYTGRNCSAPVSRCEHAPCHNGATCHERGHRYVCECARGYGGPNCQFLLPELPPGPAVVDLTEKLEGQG

[12] = biological target: human delta-like ligand 3 (DLL3) on SHP77 cells (human) (UniProt Q9NYJ7); assay: FACS on SHP77 cells
Sequence of human delta-like ligand 3 (DLL3) on SHP77 cells (human) (Q9NYJ7 27-618, stated change not applied): as the sequence (Q9NYJ7 27-618) above

[13] = biological target: human DLL3 protein expressed on CHO-K1 recombinant cells (human DLL3 extracellular segment fused to EpCAM transmembrane and intracellular regions) (human) (UniProt Q9NYJ7); assay: FACS, CHO-K1 hDLL3 cells, 0.00128 nM antibody
[14] = biological target: monkey DLL3 on CHO-K1-cyno DLL3 cells (cynomolgus monkey); assay: FACS, CHO-K1-cyno DLL3 cells, 4 nM antibody
[15] = biological target: human DLL3 protein (extracellular segment, His tag) (human) (UniProt Q9NYJ7); assay: SPR (Biacore 8K), antibody captured on Protein A chip, DLL3 antigen in solution, 1:1 Langmuir fit
Sequence of human DLL3 protein (extracellular segment, His tag) (human) (Q9NYJ7 27-492): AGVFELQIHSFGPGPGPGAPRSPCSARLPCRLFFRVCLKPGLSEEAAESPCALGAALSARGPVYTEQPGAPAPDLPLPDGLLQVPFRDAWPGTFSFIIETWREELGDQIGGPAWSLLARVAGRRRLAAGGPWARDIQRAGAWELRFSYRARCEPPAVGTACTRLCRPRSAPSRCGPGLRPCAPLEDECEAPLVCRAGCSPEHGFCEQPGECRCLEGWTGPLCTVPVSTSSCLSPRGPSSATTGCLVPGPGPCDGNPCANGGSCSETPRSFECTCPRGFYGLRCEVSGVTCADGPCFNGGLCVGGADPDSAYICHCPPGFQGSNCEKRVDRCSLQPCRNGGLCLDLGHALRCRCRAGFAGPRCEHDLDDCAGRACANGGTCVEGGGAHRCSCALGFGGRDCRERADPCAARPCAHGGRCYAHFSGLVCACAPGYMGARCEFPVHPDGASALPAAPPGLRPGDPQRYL

[16] = biological target: DLL3 endogenously expressed on NCI-H82 cells (UniProt Q9NYJ7); assay: FACS on NCI-H82 cells; antibody 0.00128 nM
[17] = biological target: mouse DLL3 on CHO-K1-mDLL3 cells (mouse) (UniProt O88516); assay: FACS, CHO-K1-mDLL3 cells, 0.0064 nM antibody
[18] = biological target: monkey DLL3 on CHO-K1-cyno DLL3 cells (cynomolgus monkey); assay: FACS, CHO-K1-cyno DLL3 cells, 100 nM antibody
[19] = biological target: monkey DLL3 on CHO-K1-cyno DLL3 cells (cynomolgus monkey); assay: FACS, CHO-K1-cyno DLL3 cells, 0.8 nM antibody
[20] = biological target: mouse DLL3 on CHO-K1-mDLL3 cells (mouse) (UniProt O88516); assay: FACS, CHO-K1-mDLL3 cells, 4 nM antibody
[21] = biological target: DLL3 endogenously expressed on NCI-H82 cells (UniProt Q9NYJ7); assay: FACS on NCI-H82 cells; antibody 0.16 nM
[22] = biological target: mouse DLL3 on CHO-K1-mDLL3 cells (mouse) (UniProt O88516); assay: FACS, CHO-K1-mDLL3 cells, 0.8 nM antibody
[23] = biological target: DLL3 endogenously expressed on NCI-H82 cells (UniProt Q9NYJ7); assay: FACS on NCI-H82 cells; antibody 100 nM
[24] = biological target: human DLL3 protein expressed on CHO-K1 recombinant cells (human DLL3 extracellular segment fused to EpCAM transmembrane and intracellular regions) (human) (UniProt Q9NYJ7); assay: FACS, CHO-K1 hDLL3 cells, 100 nM antibody
[25] = biological target: monkey DLL3 on CHO-K1-cyno DLL3 cells (cynomolgus monkey); assay: FACS, CHO-K1-cyno DLL3 cells, 0.00128 nM antibody
[26] = biological target: human DLL3 protein expressed on CHO-K1 recombinant cells (human DLL3 extracellular segment fused to EpCAM transmembrane and intracellular regions) (human) (UniProt Q9NYJ7); assay: FACS, CHO-K1 hDLL3 cells, 0.0064 nM antibody
[27] = biological target: mouse DLL3 on CHO-K1-mDLL3 cells (mouse) (UniProt O88516); assay: FACS, CHO-K1-mDLL3 cells, 0.16 nM antibody
[28] = biological target: mouse DLL3 on CHO-K1-mDLL3 cells (mouse) (UniProt O88516); assay: FACS, CHO-K1-mDLL3 cells, 0.00128 nM antibody
[29] = biological target: human DLL3 protein expressed on CHO-K1 recombinant cells (human DLL3 extracellular segment fused to EpCAM transmembrane and intracellular regions) (human) (UniProt Q9NYJ7); assay: FACS, CHO-K1 hDLL3 cells, 0.032 nM antibody
[30] = biological target: DLL3 endogenously expressed on NCI-H82 cells (UniProt Q9NYJ7); assay: FACS on NCI-H82 cells; antibody 4 nM
[31] = biological target: human DLL3 protein expressed on CHO-K1 recombinant cells (human DLL3 extracellular segment fused to EpCAM transmembrane and intracellular regions) (human) (UniProt Q9NYJ7); assay: FACS, CHO-K1 hDLL3 cells, 20 nM antibody
[32] = biological target: human DLL3 protein expressed on CHO-K1 recombinant cells (human DLL3 extracellular segment fused to EpCAM transmembrane and intracellular regions) (human) (UniProt Q9NYJ7); assay: FACS, CHO-K1 hDLL3 cells, 0.16 nM antibody
[33] = biological target: DLL3 endogenously expressed on NCI-H82 cells (UniProt Q9NYJ7); assay: FACS on NCI-H82 cells; antibody 20 nM
[34] = biological target: mouse DLL3 on CHO-K1-mDLL3 cells (mouse) (UniProt O88516); assay: FACS, CHO-K1-mDLL3 cells, 20 nM antibody
[35] = biological target: monkey DLL3 on CHO-K1-cyno DLL3 cells (cynomolgus monkey); assay: FACS, CHO-K1-cyno DLL3 cells, 0.032 nM antibody
[36] = biological target: human DLL4 protein (Acro, Cat. No. DL4-H5227) (human) (UniProt Q9NR61); assay: ELISA, coated hDLL4; maximum over 0.1, 1, 10, 100 nM antibody
Sequence of human DLL4 protein (Acro, Cat. No. DL4-H5227) (human) (Q9NR61 27-524 limits assumed): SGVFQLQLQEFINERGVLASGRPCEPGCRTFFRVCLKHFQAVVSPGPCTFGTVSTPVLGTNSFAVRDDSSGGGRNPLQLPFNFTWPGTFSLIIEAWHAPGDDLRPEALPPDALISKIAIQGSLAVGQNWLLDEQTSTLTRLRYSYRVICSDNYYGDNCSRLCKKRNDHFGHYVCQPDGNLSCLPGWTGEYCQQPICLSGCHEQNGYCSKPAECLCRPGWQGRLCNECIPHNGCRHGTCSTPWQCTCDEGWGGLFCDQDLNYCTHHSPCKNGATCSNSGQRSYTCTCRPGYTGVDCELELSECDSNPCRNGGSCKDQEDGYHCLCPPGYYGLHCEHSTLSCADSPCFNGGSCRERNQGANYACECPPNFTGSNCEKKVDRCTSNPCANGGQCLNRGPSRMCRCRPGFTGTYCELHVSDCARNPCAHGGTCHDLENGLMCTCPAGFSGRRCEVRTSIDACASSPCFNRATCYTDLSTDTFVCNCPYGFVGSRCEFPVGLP

Sequence of human DLL3 protein expressed on CHO-K1 recombinant cells (human DLL3 extracellular segment fused to EpCAM transmembrane and intracellular regions) (human) (Q9NYJ7 other isoform, or with tags, fused parts or gaps limits assumed): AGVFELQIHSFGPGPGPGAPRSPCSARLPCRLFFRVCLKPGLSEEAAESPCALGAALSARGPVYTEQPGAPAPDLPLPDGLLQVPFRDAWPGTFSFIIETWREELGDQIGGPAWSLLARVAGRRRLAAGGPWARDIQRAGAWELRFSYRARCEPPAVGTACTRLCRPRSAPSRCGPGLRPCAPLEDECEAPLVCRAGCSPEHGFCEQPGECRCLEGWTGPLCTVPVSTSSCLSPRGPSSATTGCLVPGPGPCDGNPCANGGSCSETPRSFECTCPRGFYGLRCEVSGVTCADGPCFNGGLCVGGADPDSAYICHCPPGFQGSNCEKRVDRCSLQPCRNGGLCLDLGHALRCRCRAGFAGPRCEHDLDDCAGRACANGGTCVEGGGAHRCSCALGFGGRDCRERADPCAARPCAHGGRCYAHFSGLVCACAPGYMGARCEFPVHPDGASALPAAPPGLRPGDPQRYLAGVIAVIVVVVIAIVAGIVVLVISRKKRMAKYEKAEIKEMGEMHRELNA

MFI [1]: 7270 MFI
MFI [2]: 1380 MFI
MFI [3]: 5000 MFI
MFI [4]: 242
MFI [5]: 155
MFI [6]: 12700 MFI
MFI [7]: 412
MFI [8]: 589 MFI
MFI [9]: 246 MFI
MFI [10]: 9060 MFI
Emax of OD450 nm binding value [11]: 0.07 OD450 nm
MFI at 0.00128 nM [12]: 208 MFI
MFI at 0.0064 nM [12]: 275 MFI
MFI at 0.032 nM [12]: 458 MFI
MFI at 0.16 nM [12]: 938 MFI
MFI at 0.8 nM [12]: 1310 MFI
MFI at 4 nM [12]: 1410 MFI
MFI at 20 nM [12]: 1600 MFI
MFI at 100 nM [12]: 1890 MFI
MFI [13]: 419 MFI
MFI [14]: 8590 MFI
Kd [15]: 0.568 nM
koff [15]: 0.000221 s⁻¹
kon [15]: 389000 M⁻¹ s⁻¹
MFI [16]: 126
MFI [17]: 187 MFI
MFI [18]: 9720 MFI
MFI [19]: 7840 MFI
MFI [20]: 615 MFI
MFI [21]: 367
MFI [22]: 529 MFI
MFI [23]: 626
MFI [24]: 14300 MFI
MFI [25]: 750 MFI
MFI [26]: 716 MFI
MFI [27]: 406 MFI
MFI [28]: 126 MFI
MFI [29]: 1050 MFI
MFI [30]: 291
MFI [31]: 13600 MFI
MFI [32]: 3100 MFI
MFI [33]: 519
MFI [34]: 627 MFI
MFI [35]: 1730 MFI
Emax of OD450 nm binding value [36]: 0.15 OD450 nm
B1: Hab006VL1VH4-hFc (scFv, part only; not given: VL-VH linker and human IgG1 Fc, V domains shown, not shown: another chain or arm of the molecule; a dimerising Fc or GST; small tags and cut ends)
VL: DIQMTQSPSSLSASVGDRVTITCRATKSISKYLAWYQQKPGKAPKLLIFSGSTLQSGVPSRFSGSGSGTDFTLTISSLQPEDFATYYCQQHHEYPYTFGGGTKVEIK
VH: EVQLVQSGAEVKKPGASVKVSCKASGYTFTSYWMHWVRQAPGQRLEWMGVIDPSDSLANYNQEFKGRVTLTVDTSSSTAYMELSSLRSEDTAVYYCARDSTVVAPMDYWGQGTTVTVSS

MFI [1]: 11300 MFI
MFI [2]: 424 MFI
MFI [3]: 3350 MFI
MFI [4]: 252
MFI [5]: 157
MFI [6]: 13600 MFI
MFI [7]: 434
MFI [8]: 554 MFI
MFI [9]: 165 MFI
MFI [10]: 9050 MFI
Emax of OD450 nm binding value [11]: 0.07 OD450 nm
MFI at 0.00128 nM [12]: 215 MFI
MFI at 0.0064 nM [12]: 305 MFI
MFI at 0.032 nM [12]: 554 MFI
MFI at 0.16 nM [12]: 1060 MFI
MFI at 0.8 nM [12]: 1410 MFI
MFI at 4 nM [12]: 1490 MFI
MFI at 20 nM [12]: 1660 MFI
MFI at 100 nM [12]: 1900 MFI
MFI [13]: 227 MFI
MFI [14]: 8440 MFI
Kd [15]: 0.286 nM
koff [15]: 0.000119 s⁻¹
kon [15]: 415000 M⁻¹ s⁻¹
MFI [16]: 123
MFI [17]: 110 MFI
MFI [18]: 10500 MFI
MFI [19]: 7500 MFI
MFI [20]: 485 MFI
MFI [21]: 397
MFI [22]: 404 MFI
MFI [23]: 596
MFI [24]: 15200 MFI
MFI [25]: 239 MFI
MFI [26]: 411 MFI
MFI [27]: 278 MFI
MFI [28]: 98 MFI
MFI [29]: 1130 MFI
MFI [30]: 454
MFI [31]: 14500 MFI
MFI [32]: 4120 MFI
MFI [33]: 504
MFI [34]: 523 MFI
MFI [35]: 1110 MFI
Emax of OD450 nm binding value [36]: 0.08 OD450 nm
B2: Hab006VL4VH1-hFc (scFv, part only; not given: scFv linker and human IgG1 Fc, V domains shown, not shown: another chain or arm of the molecule; a dimerising Fc or GST; small tags and cut ends)
VL: DIVMTQSPDSLAVSLGERATINCRATKSISKYLAWYQQKPGQTNKLLIFSGSTLQSGVPDRFSGSGSGTDFTLTISSLQAEDVAVYYCQQHHEYPYTFGGGTKVEIK
VH: EVQLVQSGAEVKKPGASVKVSCKASGYTFTSYWMHWVRQAPGQRLEWMGVIDPSDSLANYNQEFKGRVTITVDTSASTAYMELSSLRSEDTAVYYCARDSTVVAPMDYWGQGTTVTVSS
